Laboratory results from publication PMC4004960.

Biological target: BRD4-BD1 (recombinant, NMR and fluorescence anisotropy) (UniProt O60885)
Test: fluorescence polarisation

For “Twist-K73ac/K76ac peptide (residues 68-79) (from UniProt Q15672 68-79)”, which Ki is on record?
The Ki was greater than 3 mM.
